Source: publication PMC3712923, “Structure-Guided Design of an Engineered Streptavidin with Reusability to Purify Streptavidin-Binding Peptide Tagged Proteins or Biotinylated Proteins” (PLoS ONE, 2013)

Tests used:
Assay in all cases: SPR; BIAcoreX; synthetic SBP peptide thiol-coupled by its N-terminal cysteine to a CM5 chip, streptavidin variant as analyte; blank flow cell as reference
Settings in all cases: both partners purified
[1] = target: T1, SAVSBPM18 engineered streptavidin (S27A, G48T) (UniProt P22629 25-183, S27A | G48T)
T1 construct: streptavidin with the double mutation S27A, G48T; Secreted by means of the B. subtilis levansucrase (SacB) signal peptide; also called streptavidin SAVSBPM18; source: B. subtilis WB800[pSAVSBPM18], secreted, purified (biotin-agarose)

wild-type streptavidin = target: T2, wild-type streptavidin (UniProt P22629 25-183)
T2 construct: wild-type streptavidin, commercial; also called wt SAV; wt streptavidin; source: bought: Sigma Canada

[2] = target: T3, SAVSBPM12 streptavidin mutein (G48T) (UniProt P22629 25-183, G48T)
T3 construct: streptavidin with the mutation G48T; Secreted by means of the SacB signal peptide; Its oligomeric state was not measured; also called G48T streptavidin mutein; source: B. subtilis WB800[pSAVSBPM12], secreted, purified (biotin-agarose), denatured and renatured, then iminobiotin-agarose
T3 sequence (P22629 25-183 G72T): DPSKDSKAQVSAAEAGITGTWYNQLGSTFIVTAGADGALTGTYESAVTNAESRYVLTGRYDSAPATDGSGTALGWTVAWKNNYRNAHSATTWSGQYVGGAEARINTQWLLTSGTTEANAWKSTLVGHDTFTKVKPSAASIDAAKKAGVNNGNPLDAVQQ

T1 sequence (P22629 25-183 S51A/G72T): as the sequence (P22629 25-183 G72T) above, with S27A counted along it
T2 sequence (P22629 25-183): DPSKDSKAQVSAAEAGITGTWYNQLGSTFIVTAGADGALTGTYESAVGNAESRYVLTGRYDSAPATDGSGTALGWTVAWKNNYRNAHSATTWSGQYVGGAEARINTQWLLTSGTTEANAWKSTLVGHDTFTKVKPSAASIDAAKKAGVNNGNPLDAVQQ

B1: synthetic 59-amino acid peptide with the full length SBP tag (peptide)
peptide: CGGGGSTSGGSTSGGSTSGGGMDEKTTGWRGGHVVEGLAGELEQLRARLEHHPQGQREP
notes: N-terminal cysteine for thiol coupling to the CM5 chip, then the 20-amino-acid glycine-rich linker; the limits are worked out as 1 Cys + 20 linker + 38 SBP = 59; also called SBP tag (peptide); synthetic SBP tag; source: synthetic peptide (Peptide 2.0 Inc.)
Q: Which results are given for B1?
A: Kd [1]: 7.67 nM; koff [1]: 0.000821 s⁻¹; kon [1]: 107000 M⁻¹ s⁻¹; Kd (wild-type streptavidin): 1.65 nM; koff (wild-type streptavidin): 0.000496 s⁻¹; kon (wild-type streptavidin): 300000 M⁻¹ s⁻¹; Kd [2]: 1.99 nM; koff [2]: 0.00056 s⁻¹; kon [2]: 281000 M⁻¹ s⁻¹
